# Laboratory results as given in FireProtDB (doi:10.1006/jmbi.1993.1336).
# B1: Guanyl-specific ribonuclease T1, P00651 (parent)
# chain: MMYSKLLTLTTLLLPTALALPSLVERACDYTCGSNCYSSSDVSTAQAAGYQLHEDGETVGSNSYPHKYNNYEGFDFSVSSPYYEWPILSSGDVYSGGSPGADRVVFNENNQLAGVITHTGASGNNFVECT
# Variants of: B1
# Conditions: Aspergillus oryzae (strain ATCC 42149 / RIB 40); pH 5; 25 °C; GdnHCl; Fluorescence; Sodium acetate 0.1 M; reversible: yes; structure 1RN1; whole UniProt chain shown
Variant,ddG of mutation (higher = less stable),denaturant m value,denaturant midpoint (higher = more stable),unfolding free energy
P65A,5.12 kcal/mol,2.63 kcal/mol/M,1.71 M,4.88 kcal/mol

# Same assay, conditions: Aspergillus oryzae (strain ATCC 42149 / RIB 40); pH 8; 10 °C; GdnHCl; Fluorescence; Tris 0.1 M; reversible: yes; structure 1RN1; whole UniProt chain shown
Variant,ddG of mutation (higher = less stable),denaturant m value,denaturant midpoint (higher = more stable),unfolding free energy
P65A,4.33 kcal/mol,2.87 kcal/mol/M,1.43 M,4.11 kcal/mol
